Test in all cases: competition
Data set [1] deals with E. coli CRP (Escherichia coli K12 MG1655, UniProt P0ACJ8 1-210).
Data set [2] concerns the target T1, TP0262 (TpCRP, CRP homolog) (Treponema pallidum subsp. pallidum, UniProt O83286 1-224).
T1 sequence: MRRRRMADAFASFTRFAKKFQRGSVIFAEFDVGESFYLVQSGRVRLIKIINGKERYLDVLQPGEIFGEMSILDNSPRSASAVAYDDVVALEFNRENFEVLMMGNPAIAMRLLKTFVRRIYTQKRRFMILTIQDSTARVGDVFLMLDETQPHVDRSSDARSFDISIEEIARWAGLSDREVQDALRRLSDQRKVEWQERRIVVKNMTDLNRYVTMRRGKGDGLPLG

For data set [3], the target named is T1, TP0262 (TpCRP, CRP homolog). The source holds these as a separate data set.
For data set [4] the target is unchanged. This is another data set of the same source.

Where two headings read alike, the source gives them in different places.

E. coli CRP, sequence (P0ACJ8 whole entry): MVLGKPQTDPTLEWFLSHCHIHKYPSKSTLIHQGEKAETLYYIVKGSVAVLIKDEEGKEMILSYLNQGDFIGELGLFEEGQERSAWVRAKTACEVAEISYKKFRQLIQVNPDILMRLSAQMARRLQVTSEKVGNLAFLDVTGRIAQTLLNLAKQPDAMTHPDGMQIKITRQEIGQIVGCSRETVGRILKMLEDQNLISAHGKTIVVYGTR

B1: lac competitor oligo (E. coli CRP site) (dsDNA)
DNA 1: AAATGTGATCTAGATCACATTT
DNA 2: AAATGTGATCTAGATCACATTT
As to B1, the binding result in data set [1] is “binds”.

B2: tprJ competitor oligo (dsDNA)
DNA 1: GTTGTCAGTGCACGAGGAGGAG
DNA 2: CTCCTCCTCGTGCACTGACAAC
Regarding B2, in data set [2], the binding result is “binds”.

B3: tprG competitor oligo (dsDNA)
DNA 1: GTCAGTGCTAGCAGTCACATAC
DNA 2: GTATGTGACTGCTAGCACTGAC
On to B3, for which the binding result in data set [3] is given as “binds”.

B4: tprE competitor oligo (dsDNA)
DNA 1: TGCGTGTGTGTGTGGGCTCGTGCTG
DNA 2: CAGCACGAGCCCACACACACACGCA
In the case of B4, the binding result in data set [4] is on record as “binds”.

These data come from article PMC2698047.
